Our source for the Kd values is article PMC10905646 (Molecular psychiatry, 2023).

For the assay, the target named is T1, 6×His-tagged Kv3.1 T1 domain (His-31T1) (UniProt P25122 1-190).
T1 sequence (looked up): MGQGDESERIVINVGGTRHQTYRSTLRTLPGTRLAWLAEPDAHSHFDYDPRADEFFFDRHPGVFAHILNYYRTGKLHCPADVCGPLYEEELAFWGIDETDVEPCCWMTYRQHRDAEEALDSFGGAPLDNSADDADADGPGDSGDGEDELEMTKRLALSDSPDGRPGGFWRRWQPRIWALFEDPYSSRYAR
In words: SPR. In general terms: Surface plasmon resonance follows binding to a sensor surface in real time, without labels.

B1: GST-fused MAP6 Mn modules (GST-M115–221; aa 115–221 from MAP6N) (domain or fragment, UniProt Q63560 115-221, looked up)
chain: ADSVMRQDYRAWKVQRPEPSCRPRSEYQPSDAPFERETQYQKDFRAWPLPRRGDHPWIPKPVQIPATSQPSPPVLGMPKRRPQSQERGPIQLSADARDPEGAGGAGV
For orientation: Kd means the constant that tells how readily two partners part at equilibrium. A high value points to lower affinity. As to B1, the Kd worked out at 62.5 ± 18.4 nM.
